This note sets out measurements from patent publication US12618050B2, “Engineered polypeptides that exhibit increased catalytic efficiency for unnatural cofactors and uses thereof” (The Regents of the University of California, priority 2018, dated 2026).

Substitutions are numbered along the chain they refer to. Names may count otherwise.

Data set [1] is described as follows: GDH enzymatic assay with NMN^+ as cofactor. Conditions: for impact of mutation on activity towards NMN^+: without I195R. The class given is biochemical. How it is done: GDH enzymatic assays. The GDH activity was measured as described in Hilt et al. (Biochimica et biophysica acta 1076(2):298-304 (1991)). The reactions were started by adding the purified protein to the assay mixture containing 35 mM Tris-HCl buffer (pH 8.0), 3 mM NAD^+, NADP^+ or NMN^+ and 140 mM glucose. The absorbance variation at 340 nm was detected by a spectrophotometer at 25° C.

Data set [2] is described as follows: Protein expression levels of GDH variants. Also noted: species or system Escherichia coli. Conditions: expressed in E. coli. How it is done:
Proteins were purified as 6×His tag fusion at the N-terminus. E. coli BL21 (DE3) with plasmids were inoculated into LB medium with 200 mg L^−1 ampicillin. Cells were induced with 0.5 mM IPTG and expressed for 24 hours at 30° C. with shaking at 250 rpm. BM3 cytochrome P450 was extracted with the EMD Millipore™ BugBuste Plus Lysonase Kit and purified using the HisPur™ Ni-NTA Superflow Purification System according to the manufacturer's instructions. Other proteins were purified using His-Spin Protein Miniprep kit (Zymo Research Corporation, CA). The purified proteins were quantified by Bradford assay.

The mark [3] stands for this setting: specific activity towards NMN^+.

B1: A93K: Bs GDH with A93K substitution (SEQ ID NO:3) (protein)
chain: MYPDLKGKVVAITGAASGLGKAMAIRFGKEQAKVVINYYSNKQDPNEVKEEVIKAGGEAVVVQGDVTKEEDVKNIVQTAIKEFGTLDIMINNKGLENPVPSHEMPLKDWDKVIGTNLTGAFLGSREAIKYFVENDIKGNVINMSSVHEVIPWPLFVHYAASKGGIKLMTETLALEYAPKGIRVNNIGPGAINTPINAEKFADPKQKADVESMIPMGYIGEPEEIAAVAAWLASKEASYVTGITLFADGGMTQYPSFQAGRG
modifications: A93K mutant GDH coding sequence
B1: the “impact of mutation on activity towards NMN^+” value (from here on “impact of mutation”) in data set [1] is reported as “lack of impact on activity”.

B2: N92V (protein)
chain: B1 chain with N92V, K93A
B2 had an Expression level in data set [2] of 57.56 μg protein/ml culture.

B3: G94S (protein)
chain: B1 chain with K93A, G94S
In turn, B3 yielded an Expression level in data set [2] of 117.50 μg protein/ml culture.

B4: S17Q-P194N (protein)
chain: B1 chain with S17Q, K93A, P194N
In data set [2], B4 returned an Expression level of 117.63 μg protein/ml culture.

B5: I195T (protein)
chain: B1 chain with K93A, I195T
B5: the Expression level in data set [2] worked out at 105.51 μg protein/ml culture.

B6: I195S (protein)
chain: B1 chain with K93A, I195S
For the molecule B6, the Expression level in data set [2] came to 96.33 μg protein/ml culture.

B7: I195R-Y39Q: Bs GDH variant I195R Y39Q (protein)
chain: B1 chain with Y39Q, K93A, I195R
In the case of B7, in data set [1] (setting [3]), the “lower activity than GDH Triple” value is recorded as 14 fold and the “slower than I195R” value worked out at 2.4 fold. This molecule gave an Expression level in data set [2] of 57.60 μg protein/ml culture.

B8: Y39Q: Bs GDH with Y39Q substitution (SEQ ID NO:4) (protein)
chain: B1 chain with Y39Q, K93A
modifications: Y39Q mutant GDH coding sequence
For B8, in data set [1], the “impact of mutation” value is on record as “lack of impact on activity”.

B9: M143S (protein)
chain: B1 chain with K93A, M143S
In data set [2], B9 returned an Expression level of 40.60 μg protein/ml culture.

B10: M143G-L19G-I224R (protein)
chain: B1 chain with L19G, K93A, M143G, I224R
For the molecule B10, the Expression level result in data set [2] is reported as “No expression (<1) μg protein/ml culture”.

B11: I195R-A93K: Bs GDH variant I195R A93K (protein)
chain: B1 chain with I195R
Turning to B11, the “lower activity than GDH Triple” value in data set [1] (setting [3]) was found to be 9 fold. The molecule further had an Expression level in data set [2] of 11.17 μg protein/ml culture.

B12: A93K-Y39Q: Bs GDH variant A93K-Y39Q (protein)
chain: B1 chain with Y39Q
On to B12, for which the “impact of mutation” value in data set [1] is “lack of impact on activity”.

B13: N92A (protein)
chain: B1 chain with N92A, K93A
With B13, the Expression level in data set [2] is recorded as 81.16 μg protein/ml culture.

B14: L19H-I191S (protein)
chain: B1 chain with L19H, K93A, I191S
Turning to B14, in data set [2], the Expression level result was “No expression (<1) μg protein/ml culture”.

B15: M143T (protein)
chain: B1 chain with K93A, M143T
With B15, the Expression level in data set [2] worked out at 94.55 μg protein/ml culture.
